The target in series [1] is T1, R.CviJI restriction endonuclease (Chlorella virus IL-3A) (UniProt P52283).
T1 sequence: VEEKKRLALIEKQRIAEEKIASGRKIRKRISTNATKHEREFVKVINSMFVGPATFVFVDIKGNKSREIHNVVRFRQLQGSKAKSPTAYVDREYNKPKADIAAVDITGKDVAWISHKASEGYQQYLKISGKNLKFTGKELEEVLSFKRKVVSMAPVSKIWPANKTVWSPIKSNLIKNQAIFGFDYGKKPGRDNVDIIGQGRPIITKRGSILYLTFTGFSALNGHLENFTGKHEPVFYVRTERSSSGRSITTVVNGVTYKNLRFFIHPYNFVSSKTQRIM
In words: cleavage_in_vitro.

The subject of series [2] is M.CviJI methyltransferase (Chlorella virus IL-3A). Description: cell_activity. The following applies: p710 in E. coli; SacI 90%, HindIII 25%; improved-translation plasmids appeared 100% resistant.
Where [3] appears, read: CviJI*, 3 uncleaved, CviJI** 0 of 76 (Table 5).
The mark [4] stands for this setting: CviJI*, 5 uncleaved, CviJI** 1 of 76 (Table 5).

The results in this text go back to patent publication US5472872.

With “TGCG (double strand) [TGCG site in pUC19 (R3 PyGCPu)]”, in series [1] (setting [3]), the activity (cleaved junctions of 200) was determined as 0.
In series [1] (CviJI*, 27 uncleaved, CviJI** 0 of 76 (Table 5)), “CGCG (double strand) [CGCG site in pUC19 (R3 PyGCPu)]” yielded an activity (cleaved junctions of 200) of 0.
In turn, “TGCT (double strand) [TGCT site in pUC19 (relaxed R1 PyGCPy)]” had an activity (cleaved junctions of 200) in series [1] (setting [4]) of 10.
On to “CGCC (double strand) [CGCC site in pUC19 (relaxed R1 PyGCPy)]”, for which the activity (cleaved junctions of 200) in series [1] (CviJI*, 4 uncleaved, CviJI** 0 of 76 (Table 5)) was found to be 11.
On to “CGCA (double strand) [CGCA site in pUC19 (R3 PyGCPu)]”, for which, in series [1] (CviJI*, 12 uncleaved, CviJI** 0 of 76 (Table 5)), the activity (cleaved junctions of 200) stood at 0.
plasmid p710/pBMC5 (G/A)GC(T/C/G) sites yielded an activity (% resistance to HaeIII) in series [2] of 90.
“GGCT (double strand) [GGCT site in pUC19 (normal PuGCPy)]” displayed an activity (cleaved junctions of 200) in series [1] (CviJI*, 0 uncleaved, CviJI** 12 of 76 (Table 5)) of 13.
“TGCA (double strand) [TGCA site in pUC19 (R3 PyGCPu)]” showed an activity (cleaved junctions of 200) in series [1] (CviJI*, 19 uncleaved, CviJI** 0 of 76 (Table 5)) of 0.
“AGCG (double strand) [AGCG site in pUC19 (relaxed R2 PuGCPu)]” registered an activity (cleaved junctions of 200) in series [1] (CviJI*, 11 uncleaved, CviJI** 0 of 76 (Table 5)) of 12.
For the substance “AGCA (double strand) [AGCA site in pUC19 (relaxed R2 PuGCPu)]”, the activity (cleaved junctions of 200) in series [1] (setting [4]) was 13.
The substance “TGCC (double strand) [TGCC site in pUC19 (relaxed R1 PyGCPy)]” registered an activity (cleaved junctions of 200) in series [1] (CviJI*, 10 uncleaved, printed TOCC in Table 2, CviJI** 2 of 76 (Table 5)) of 13.
Substance “GGCG (double strand) [GGCG site in pUC19 (relaxed R2 PuGCPu)]” displayed an activity (cleaved junctions of 200) in series [1] (CviJI*, 8 uncleaved, CviJI** 4 of 76 (Table 5)) of 18.
Take “AGCC (double strand) [AGCC site in pUC19 (normal PuGCPy)]”: the activity (cleaved junctions of 200) in series [1] (CviJI* (Mg, ATP, DTT), 1 uncleaved, CviJI** 13 of 76 (Table 5)) stood at 23.
In turn, “GGCC (double strand) [GGCC site in pUC19 (normal PuGCPy)]” came in with an activity (cleaved junctions of 200) in series [1] (CviJI*, 1 uncleaved, CviJI** 16 of 76 (Table 5)) of 24.
In series [1] (CviJI*, 0 uncleaved, CviJI** 25 of 76 (Table 5)), “AGCT (double strand) [AGCT site in pUC19 (normal PuGCPy)]” displayed an activity (cleaved junctions of 200) of 35.
In series [1] (setting [3]), “GGCA (double strand) [GGCA site in pUC19 (relaxed R2 PuGCPu)]” came in with an activity (cleaved junctions of 200) of 11.
“CGCT (double strand) [CGCT site in pUC19 (relaxed R1 PyGCPy)]” gave an activity (cleaved junctions of 200) in series [1] (CviJI*, 7 uncleaved, CviJI** 2 of 76 (Table 5)) of 17.
